One assay deals with T1, mIL10Rb ECD antigen (mouse, UniProt Q61190 20-220).
T1 construct: Antigen of biopanning and PE-ELISA; also called extracellular domain of mIL10Rb
T1 sequence: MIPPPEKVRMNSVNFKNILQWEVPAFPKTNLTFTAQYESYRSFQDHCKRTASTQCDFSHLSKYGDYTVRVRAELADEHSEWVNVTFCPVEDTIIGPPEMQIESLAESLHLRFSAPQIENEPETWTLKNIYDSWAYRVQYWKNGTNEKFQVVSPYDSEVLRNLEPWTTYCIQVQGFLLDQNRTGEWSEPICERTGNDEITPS
Put plainly: periplasmic extract ELISA (PE-ELISA) of phage clones.

In the next assay the target is T2, hIL10Ra ECD antigen (human, UniProt Q13651 22-235).
T2 construct: also called ECD of IL10Ra; extracellular domain of hIL10Ra
T2 sequence: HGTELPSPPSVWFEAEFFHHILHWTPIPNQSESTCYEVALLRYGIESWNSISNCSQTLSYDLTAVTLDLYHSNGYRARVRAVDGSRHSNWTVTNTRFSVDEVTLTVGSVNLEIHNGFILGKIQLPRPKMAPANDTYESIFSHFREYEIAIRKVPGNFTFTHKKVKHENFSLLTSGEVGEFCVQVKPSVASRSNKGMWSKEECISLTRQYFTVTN
The description is as above.

The target of assay [1] is T3, hIL10Ra-his (Sino Biological, Catalog#10419) (human, UniProt Q13651 22-235).
T3 construct: Bought; also called Sino Biological cat#10419-H08H; not shown: C-terminal poly-His tag
T3 sequence: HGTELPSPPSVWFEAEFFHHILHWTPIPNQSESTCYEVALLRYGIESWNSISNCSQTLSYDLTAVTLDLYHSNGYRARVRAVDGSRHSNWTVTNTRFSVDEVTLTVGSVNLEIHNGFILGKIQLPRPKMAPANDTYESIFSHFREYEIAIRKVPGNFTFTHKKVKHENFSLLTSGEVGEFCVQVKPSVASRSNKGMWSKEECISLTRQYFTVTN
Put plainly: SPR; ratio of experimental to calculated Rmax. The text has this:
(§1) To confirm and evaluate binding affinities of the binding of the IL10Ra sdAbs, a representative example from each clonotype generated was selected for evaluation of binding via SPR. […] Buffer-subtracted sensograms were processed with Biacore T200 Evaluation Software and globally fit with a 1:1 Langmuir binding model (bulk shift set to zero) to extract kinetics and affinity constants (kₐ, kd, KD). RMAX<100 RU indicates surface density compatible with kinetics analysis. Calculated Rₘₐₓ values were generated using the equation: Rₘₐₓ=Load (RU)×valency of ligand×(Molecular weight of analyte/Molecular weight of ligand). Surface activity was defined as the ratio of experimental/calculated Rmax.
(§2) One representative example from each clonotype of IL10a generated in accordance with Examples 1-3 was selected for evaluation of binding via SPR as follows. […] All experiments were conducted in 10 mM Hepes, 150 mM NaCl, 0.05% (v/v) Polysorbate 20 (PS20) and 3 mM EDTA (HBS-EP+ buffer) on a Biacore T200 instrument equipped with a Protein A derivatized sensor chip (Cytiva). Mono-Fc VHH ligands were flowed at 5 μl/min for variable time ranging from 18 to 300 seconds, reaching the capture loads listed in the tables below. Following ligand capture, injections of a 2-fold dilution series of the extracellular domain of the IL2Rb-receptor modified to incorporate a C-terminal poly-His sequence, typically comprising at least five concentrations between 1 μM and 1 nM, were performed in either high performance or single cycle kinetics mode. Surface regeneration was achieved by flowing 10 mM glycine-HCl, pH 1.5 (60 seconds, 50 μL/min).

In assay [2] the target is T3, hIL10Ra-his (Sino Biological, …). Put plainly: SPR Biacore T200; mono-Fc VHH captured on Protein A chip, hIL10Ra-his analyte; 1:1 Langmuir fit.
Excerpt: as §1
as §2, with “[…],” for “injections of a 2-fold dilution series of the extracellular domain of the IL2Rb-receptor modified to incorporate a C-terminal poly-His sequence,”
For orientation: Surface plasmon resonance follows binding to a sensor surface in real time, without labels.

As usually defined, the Kd is the equilibrium constant for the complex coming apart. Broadly, the koff is the rate constant with which the complex falls apart. Higher therefore signals a short-lived complex. One may read the kon as a measure of how fast the partners come together. Read a high kon as faster complex formation.

B1: DR1323 (anti mouse mIL10Rb VHH) (VHH)
VHH: QVQLQESGGGSVQAGGSLRLSCVASGDTYSRKYIAWVRQVPGKEREGVAVMYTPGSATYYTDTVMGRFTISQDNAKNTVYLQMNSLKPEDTAMYFCAAKASGSMFNFRDYTYWGQGTQVTVSS
notes: Phage clone, periplasmic extract
As to B1, the binding result with mIL10Rb ECD antigen was “binds”.

B2: hIL10Ra VHH2 (VHH)
VHH: QVQLQESGGGSVQAGGSLRLSCVASRYLYSTNYMAWFRQSPGKEREAVAVIYTASGATLYTDSVKGRFTISQDNAKMTVYLQMNRLKSEDTAMYYCAAVRKTDSYLFDAQSFTYWGQGTQVTVSS
notes: as for B1
Turning to B2, the binding result with hIL10Ra ECD antigen is “binds”.

B3: hIL-10Ra_VHH10 Mono-Fc (Fc fusion)
chain: QVQLQESGGGSVQAGGSLRLSCAASRYLYSIDYMAWFRQSPGKEREPVAVIYTASGATFYPDSVKGRFTISQDNAKMTVYLQMNSLKSEDTAMYYCAAVRKTDSYLFDAQSFTYWGQGTQVTVSS
notes: Mono-Fc VHH captured on Protein A; not shown: mono-Fc part
As for B3, the “Surface Activity” value in assay [1] is 57%. In addition, in assay [2], binding was put at a Kd of 13.4 nM, the koff is 0.00139 s⁻¹ and the kon was 104000 M⁻¹ s⁻¹.

B4: hIL10Ra VHH4 (VHH)
VHH: QVQLQESGGGSIQAGGSLRLSCAASRYLYSIDYMAWFRQSPGKEREPAAVIYTASGATFYPDSVKGRFTISQDNAKMTVYLQMNSLKSEDTAMYYCAAVRKTDSYLFDAQSFTYWGQGTQVTVSS
notes: as for B1
As for B4, the binding result with hIL10Ra ECD antigen was “binds”.

B5: hIL10Ra VHH3 (VHH)
VHH: QVQLQESGGGSIQAGGSLRLSCVASRYLYSTNYMAWFRQSPGKEREAVAVIYTASGATLYTDSVKGRFTISQDNAKMTVYLQMNRLKSEDTAMYYCAAVRKTDSYLFDAQSFTYWGQGTQVTVSS
notes: as for B1
As to B5, in the assay with hIL10Ra ECD antigen, the binding result was “binds”.

B6: hIL10Ra VHH5 (VHH)
VHH: QVQLQESGGGSIQAGGSLRLSCVASKYLYSTNYMAWFRQSPGKEREAVAAIYTASGATLYSDSNKGRFTISQDNAKMTVYLQMNSLKSEDTAMYYCAAVRKTGSYLFDAQSFTYWGQGTQVTVSS
notes: as for B1
Turning to B6, in the assay with hIL10Ra ECD antigen, the binding result is “binds”.

B7: hIL10Ra VHH11 (VHH)
VHH: QVQLQESGGGSVQAGGSLRLSCGASRYTYSSYCMGWFRQAPGKEREGVAVIDSDGSTSYADSVKGRFTISKDNGKNTLYLQMNSLKPEDTAMYYCAADLGHYRPPCGVLYLGMDYWGKGTQVTVSS
notes: as for B1
Turning to B7, in the assay with hIL10Ra ECD antigen, the binding result is listed as “binds”.

B8: hIL-10Ra_VHH14 Mono-Fc (Fc fusion)
chain: QVQLQESGGGSVQAGGSLRLSCGASGYTYSSYCMGWFRQVPGKEREGVAVIDSDGSTSYADSVKGRFTISKDNGKNTLYLQMNSLKPEDTAMYYCAADLGHYRPPCGVLYLGMDYWGKGTQVTVSS
notes: as for B3
On to B8, for which the “Surface Activity” value in assay [1] was 51%. In assay [2], this molecule had an equilibrium dissociation constant (Kd) of 1.4 nM, a koff of 0.000136 s⁻¹ and an on-rate constant (kon) of 98400 M⁻¹ s⁻¹.

B9: hIL10Ra VHH16 (VHH)
VHH: QVQLQESGGGSVQAGGSLRLACAASRYTYSNYCMGWFRQAPGKEREGVATIDSDGNTSYADSVKGRFTISRDNAKNTLYLQMNSLKPGDTAMYYCAADLGHYRPPCGAYYYGMDYWGKGTQVTVSS
notes: as for B1
Turning to B9, the binding result in the assay with hIL10Ra ECD antigen is reported as “binds”.

B10: hIL10Ra VHH15 (VHH)
VHH: QVQLQESGGGSVQAGGSLRLSCGASGYTYSGYCMGWFRQAPGKEREGVAVIDSDGSTSYADSVKGRFTISKDNGKNTLYLQMNSLKPEDTAMYYCAADLGHYRPPCGVLYLGMDYWGKGTQVTVSS
notes: as for B1
With B10, the binding result with hIL10Ra ECD antigen is “binds”.

B11: DR1322 (anti mouse mIL10Rb VHH) (VHH)
VHH: QVQLQESGGGSVQAGGALRLSCTASGYTASSICMGWFRQAPGKERERVAVITTAASGTYYADSVNGRFSISQNNAKNTVYLQMNSLKPDDTAMYYCAATRRGGDCLDPLQTPAYNTWGQGTQVTVSS
notes: as for B1
As for B11, the binding result with mIL10Rb ECD antigen was “binds”.

B12: hIL-10Ra_VHH6 Mono-Fc (Fc fusion)
chain: QVQLQESGGGSVQAGGSLRLSCAASRFTYSSYCMGWFRQAPGKEREGVASIDSDGSTSYTDSVKGRFTISKDNAKNTLYLQMNSLKPEDTAMYYCALDLMSTVVPGFCGFLLSAGMDYWGKGTQVTVSS
notes: as for B3
With B12, the “Surface Activity” value in assay [1] was 83%. In assay [2], this molecule registered a Kd of 1.8 nM, a koff of 0.00019 s⁻¹ and an association rate constant (kon) of 106000 M⁻¹ s⁻¹.

B13: hIL-10Ra_VHH8 Mono-Fc (Fc fusion)
chain: QVQLQESGGGSVQAGGSLRLSCAASGYTYSMYCMGWFRQAPGKEREGVAQINSDGSTSYADSVKGRFTISKDNAKNTLYLQMNSLKPEDTAMYYCAADSRVYGGSWYERLCGPYTYEYNYWGQGTQVTVSS
notes: as for B3
Regarding B13, the “Surface Activity” value in assay [1] is 57%. In addition, in assay [2], the Kd turned out to be 6.4 nM, the koff came out at 0.00107 s⁻¹ and the kon came out at 168000 M⁻¹ s⁻¹.

B14: DR1324 (anti mouse mIL10Rb VHH) (VHH)
VHH: QVQLQESGGGSVQAGGSLRLSCATSGYASCSRAMRWYRQAPGKEREFVAYIDGVGSTGYADSVKGRFTISQDNAKYTAYLQMNSLKPEDTAMYYCNRGCRADGSNSLDNYWGQGTQVTVSS
notes: as for B1
Consider B14, for which, in the assay with mIL10Rb ECD antigen, the binding result is “binds”.

B15: hIL-10Ra_VHH9 Mono-Fc (Fc fusion)
chain: QVQLQESGGGSVQAGGSLRLSCAVSGYAYSTYCMGWFRQAPGKEREGVAAIDSGGSTSYADSVKGRFTISKDNAKNTLYLRMNSLKPEDTAMYYCAAVPPPPDGGSCLFLGPEIKVSKADFRYWGQGTQVTVSS
notes: as for B3
Turning to B15, the “Surface Activity” value in assay [1] was 66%. In assay [2], this molecule gave a Kd of 11.6 nM, a koff of 0.00115 s⁻¹ and a kon of 99700 M⁻¹ s⁻¹.

B16: hIL-10Ra_VHH17 Mono-Fc (Fc fusion)
chain: QVQLQESGGGSVQAGGSLRLSCAASGYSNCSYDMTWYRQAPGKEREFVSAIHSDGSTRYADSVKGRFFISQDNAKNTVYLQMNSLKPEDTAMYYCKTDPLHCRAHGGSWYSVRANYWGQGTQVTVSS
notes: as for B3
For B16, in assay [1], the “Surface Activity” value is 35%. Besides, in assay [2], binding was characterised by a dissociation constant (Kd) of 6 nM, the koff is 0.00197 s⁻¹ and the kon is 327000 M⁻¹ s⁻¹.

B17: hIL10Ra VHH18 (VHH)
VHH: QVQLQESGGGSVQAGGSLRLSCAVSGYTYNSNCMGWFRQAPGKEREGVATIYTGVGSTYYADSVKGRFTISQDNAKNTVYLQMNSLKPEDTAMYYCAAEPLSRVYGGSCPTPTFGYWGQGTQVTVSS
notes: as for B1
B17: the binding result in the assay with hIL10Ra ECD antigen is “binds”.

B18: hIL-10Ra_VHH12 Mono-Fc (Fc fusion)
chain: QVQLQESGGGSVQAGGSLRLSCTVSGYTYSSNCMGWFRQAPGKEREGVATIYTGGGNTYYADSVKGRFTISQDNAKNTVYLQMNNLKPEDTAMYYCAAEPLSRVYGGSCPTPTFDYWGQGTQVTVSS
notes: as for B3
As for B18, the “Surface Activity” value in assay [1] is 73%. Further, in assay [2], the Kd is 7.7 nM, the koff is 0.00119 s⁻¹ and the kon is 154000 M⁻¹ s⁻¹.

B19: hIL10Ra VHH7 (VHH)
VHH: QVQLQESGGGSVQAGGSLRLSCAVSGYTFNSNCMGWFRQAPGKEREGVATIYTGVGSTYYADSVKGRFTISQDNAKNTVYLQMNSLKPEDTAMYYCAAEPLSRVYGGSCPTPTFGYWGQGTQVTVSS
notes: as for B1
In the case of B19, in the assay with hIL10Ra ECD antigen, the binding result was “binds”.

B20: hIL10Ra VHH13 (VHH)
VHH: QVQLQESGGGSVQAGGSLRLSCAVSGYSYSSNCMGWFRQAPGKEREGVATIHTGGGSTYYADSVKGRFTISQDNAKNTVYLQMNSLKPEDTAMYYCAAEPLSRLYGGSCPTPTFGYWGQGTQVTVSS
notes: as for B1
For B20, in the assay with hIL10Ra ECD antigen, the binding result was “binds”.

Source of the values: patent US20250163167A1 (SYNTHEKINE, published 2025).
